From US20180112002A1 (University of California, published 2018) come the findings set out here.

To fix the notation:
B1: CD19 (receptor, human, UniProt P15391 20-556, looked up)
chain: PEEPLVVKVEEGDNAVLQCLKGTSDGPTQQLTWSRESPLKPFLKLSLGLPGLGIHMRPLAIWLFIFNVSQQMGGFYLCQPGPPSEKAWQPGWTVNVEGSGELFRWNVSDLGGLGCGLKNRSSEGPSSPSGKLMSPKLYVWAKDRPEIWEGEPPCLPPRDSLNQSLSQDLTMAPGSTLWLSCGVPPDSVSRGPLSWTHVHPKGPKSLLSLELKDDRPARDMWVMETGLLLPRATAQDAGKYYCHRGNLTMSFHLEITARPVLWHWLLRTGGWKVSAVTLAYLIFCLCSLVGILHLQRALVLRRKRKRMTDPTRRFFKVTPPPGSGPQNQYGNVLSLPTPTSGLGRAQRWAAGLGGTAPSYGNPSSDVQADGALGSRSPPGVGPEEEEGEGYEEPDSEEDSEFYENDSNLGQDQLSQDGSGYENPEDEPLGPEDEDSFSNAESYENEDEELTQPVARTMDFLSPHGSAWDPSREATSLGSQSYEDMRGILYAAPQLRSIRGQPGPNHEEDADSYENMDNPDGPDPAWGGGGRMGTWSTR
notes: whole, on cells; Negative control for co-localization
B2: CD5 (receptor, human, UniProt P06127 25-495, looked up)
chain: RLSWYDPDFQARLTRSNSKCQGQLEVYLKDGWHMVCSQSWGRSSKQWEDPSQASKVCQRLNCGVPLSLGPFLVTYTPQSSIICYGQLGSFSNCSHSRNDMCHSLGLTCLEPQKTTPPTTRPPPTTTPEPTAPPRLQLVAQSGGQHCAGVVEFYSGSLGGTISYEAQDKTQDLENFLCNNLQCGSFLKHLPETEAGRAQDPGEPREHQPLPIQWKIQNSSCTSLEHCFRKIKPQKSGRVLALLCSGFQPKVQSRLVGGSSICEGTVEVRQGAQWAALCDSSSARSSLRWEEVCREQQCGSVNSYRVLDAGDPTSRGLFCPHQKLSQCHELWERNSYCKKVFVTCQDPNPAGLAAGTVASIILALVLLVVLLVVCGPLAYKKLVKKFRQKKQRQWIGPTGMNQNMSFHRNHTATVRSHAENPTASHVDNEYSQPPRNSHLSAYPALEGALHRSSMQPDNSSDSDYDLHGAQRL
notes: as for B1
B3: ARHGEF6 protein (Rho guanine nucleotide exchange factor 6) (other)
chain: MNPEEQIVTWLISLGVLESPKKTICDPEEFLKSSLKNGVVLCKLINRLMPGSVEKFCLDPQTEADCINNINDFLKGCATLQVEIFDPDDLYSGVNFSKVLSTLLAVNKATEDQLSERPCGRSSSLSAANTSQTNPQGAVSSTVSGLQRQSKTVEMTENGSHQLIVKARFNFKQTNEDELSVCKGDIIYVTRVEEGGWWEGTLNGRTGWFPSNYVREIKSSERPLSPKAVKGFETAPLTKNYYTVVLQNILDTEKEYAKELQSLLVTYLRPLQSNNNLSTVEVTSLLGNFEEVCTFQQTLCQALEECSKFPENQHKVGGCLLSLMPHFKSMYLAYCANHPSAVNVLTQHSDELEQFMENQGASSPGILILTTNLSKPFMRLEKYVTLLQELERHMEDTHPDHQDILKAIVAFKTLMGQCQDLRKRKQLELQILSEPIQAWEGEDIKNLGNVIFMSQVMVQYGACEEKEERYLMLFSNVLIMLSASPRMSGFIYQGKIPIAGTVVTRLDEIEGNDCTFEITGNTVERIVVHCNNNQDFQEWLEQLNRLIRGPASCSSLSKTSSSSCSAHSSFSSTGQPRGPLEPPQIIKPWSLSCLRPAPPLRPSAALGYKERMSYILKESSKSPKTMKKFLHKRKTERKPSEEEYVIRKSTAALEEDAQILKVIEAYCTSANFQQGHGSSTRKDSIPQVLLPEEEKLIIEETRSNGQTIMEEKSLVDTVYALKDEVRELKQENKRMKQCLEEELKSRRDLEKLVRRLLKQTDECIRGESSSKTSILP
notes: Endogenous protein of CLL and MEC1 cells

For assay [1], the target named is T1, ROR1 protein (tyrosine-protein kinase transmembrane receptor ROR1) (human, UniProt Q01973 30-937).
T1 construct: Endogenous ROR1 of CLL patients' cells, and full-length ROR1 expressed from a vector in the human CLL line MEC1 (MEC1-ROR1); also called NTRKR1; full-length ROR1
Briefly: fluorescence confocal microscopy, CLL cells. The method, then: (§1) FIG. 9. Negative control for co-localization analysis by confocal microscopy. CLL cells were stained with anti-CD5-Alexa-647 and anti-CD19-Alexa-488; anti-ROR1-Alexa-647 and anti-CD19-Alexa-488; or anti-CD5-Alexa-647 and anti-ROR2-Alexa-488 for evaluation by confocal microscopy (Scale bar: 2 μm). There is no co-localization between CD5 and CD19, ROR1 and CD19, or CD5 and ROR2.
(§2) However, it was difficult to detect co-localization of ROR1 with ROR2 in cultured CLL cells unless they were treated with exogenous Wnt5a (FIG. 3b).

For the assay “CD19”, the target named is B1. Briefly: fluorescence confocal microscopy, CLL cells. The method, then: as §1, §2
Assay [2] deals with T2, ROR2 protein (tyrosine-protein kinase transmembrane receptor ROR2) (human, UniProt Q01974 34-943).
T2 construct: Endogenous ROR2 of CLL cells, normal B cells and MEC1 cells; also called NTRKR2
Briefly: fluorescence confocal microscopy, CLL cells. The method, then: as §1, §2

For assay [3], the target named is T2, ROR2 protein (tyrosine-protein kinase …). The assay can be described thus: fluorescence confocal microscopy, Wnt5a-treated CLL cells.

T2 sequence (Q01974 34-943 limits assumed): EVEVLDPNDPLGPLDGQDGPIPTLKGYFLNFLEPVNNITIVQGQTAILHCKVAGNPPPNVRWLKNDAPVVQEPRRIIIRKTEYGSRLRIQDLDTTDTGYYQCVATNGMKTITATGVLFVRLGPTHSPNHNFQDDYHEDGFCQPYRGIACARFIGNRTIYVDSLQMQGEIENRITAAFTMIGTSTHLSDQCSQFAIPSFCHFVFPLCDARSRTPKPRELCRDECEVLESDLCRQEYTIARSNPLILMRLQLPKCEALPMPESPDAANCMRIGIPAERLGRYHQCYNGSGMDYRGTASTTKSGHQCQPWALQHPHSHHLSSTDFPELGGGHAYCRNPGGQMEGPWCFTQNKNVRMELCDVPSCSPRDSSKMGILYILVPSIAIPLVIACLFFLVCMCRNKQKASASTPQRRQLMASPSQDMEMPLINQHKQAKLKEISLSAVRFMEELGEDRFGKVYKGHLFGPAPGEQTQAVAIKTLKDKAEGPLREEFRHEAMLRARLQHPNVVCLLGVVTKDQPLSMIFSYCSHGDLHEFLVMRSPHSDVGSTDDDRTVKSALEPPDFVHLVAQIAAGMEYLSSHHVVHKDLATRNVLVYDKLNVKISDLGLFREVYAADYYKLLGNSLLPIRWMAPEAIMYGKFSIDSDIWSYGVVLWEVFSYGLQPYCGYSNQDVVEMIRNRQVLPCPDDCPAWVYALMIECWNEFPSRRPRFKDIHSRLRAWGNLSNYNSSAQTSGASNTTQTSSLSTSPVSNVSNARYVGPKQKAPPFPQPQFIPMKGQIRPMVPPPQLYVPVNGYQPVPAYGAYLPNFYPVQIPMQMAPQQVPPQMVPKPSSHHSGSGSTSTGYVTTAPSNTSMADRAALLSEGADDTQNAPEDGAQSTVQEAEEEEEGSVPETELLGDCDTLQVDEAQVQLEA
T1 sequence (Q01973 30-937 limits assumed): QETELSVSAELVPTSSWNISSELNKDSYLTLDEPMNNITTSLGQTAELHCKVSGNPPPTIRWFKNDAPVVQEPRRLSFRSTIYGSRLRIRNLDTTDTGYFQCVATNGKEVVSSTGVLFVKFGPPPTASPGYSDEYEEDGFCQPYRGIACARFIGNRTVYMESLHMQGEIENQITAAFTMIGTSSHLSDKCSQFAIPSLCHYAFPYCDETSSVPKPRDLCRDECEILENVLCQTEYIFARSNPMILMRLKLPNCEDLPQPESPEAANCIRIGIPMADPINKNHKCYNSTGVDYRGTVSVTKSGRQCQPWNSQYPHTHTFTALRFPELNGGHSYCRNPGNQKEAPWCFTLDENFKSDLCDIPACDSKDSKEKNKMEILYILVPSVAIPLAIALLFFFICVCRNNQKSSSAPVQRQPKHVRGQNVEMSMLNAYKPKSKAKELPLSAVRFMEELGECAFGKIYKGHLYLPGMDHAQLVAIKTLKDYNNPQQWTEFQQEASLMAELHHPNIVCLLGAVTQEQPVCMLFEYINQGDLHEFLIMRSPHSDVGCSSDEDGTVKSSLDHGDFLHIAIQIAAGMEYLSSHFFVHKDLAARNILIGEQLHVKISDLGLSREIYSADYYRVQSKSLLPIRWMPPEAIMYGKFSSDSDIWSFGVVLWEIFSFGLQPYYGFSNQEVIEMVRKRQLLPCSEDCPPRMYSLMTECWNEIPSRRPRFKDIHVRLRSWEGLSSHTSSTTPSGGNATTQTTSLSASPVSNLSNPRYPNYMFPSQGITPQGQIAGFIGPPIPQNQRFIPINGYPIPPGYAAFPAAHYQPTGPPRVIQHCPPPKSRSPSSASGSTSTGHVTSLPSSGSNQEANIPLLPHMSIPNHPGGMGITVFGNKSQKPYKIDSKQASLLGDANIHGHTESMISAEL

On to B1, for which the binding result in assay [1] was “no binding”. On to B2, for which the binding result (with CD19; in assay [2]) was “no binding” in each case. Consider B3, for which, in assay [3], the binding result is reported as “binds”.
